According to the supplement of paper PMC11865577:

How the values were obtained:
Experiment in all cases: pull-down binding Z-score (relative to library population); higher = stronger binding
[1] = test system: TO-N3-2 (biotin conjugate); conditions: RNA library: Library-2
In short: (§1)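 A heat-folded, dye-end-labelled (Cy5 or Cy3) RNA library (1 μg, phosphate/NaCl/KCl buffer) was exposed for 60 min at 25 °C to streptavidin beads holding 100 pmol of biotin-conjugated small molecule. RNA retained on the beads was eluted in hot SDS and hybridised to a DNA barcode microarray for 20 h at 55.5 °C. Binding scores were Z-scores against the library mean and standard deviation, calculated after subtracting beads alone and taking trimmed means of replicate probes.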

[2] = test system: TO-3-N3 (biotin conjugate); conditions: RNA library: Library-2
In short: as §1

[3] = test system: G-clamp-N3 (biotin conjugate); conditions: RNA library: Library-1 (pre-miRNA loops + repeats)
In short: as §1

[4] = test system: TO-3-N3-2 (biotin conjugate); conditions: RNA library: Library-2
In short: as §1

TO-N3 (biotin conjugate) = conditions: RNA library: Library-2
In short: as §1

UGUUUAUGUUAUUUAUGGUUAAACA [hsa-mir-376c]
pull-down binding Z-score [1]: -0.967 | pull-down binding Z-score [2]: -0.655 | pull-down binding Z-score [3]: 0.239 | pull-down binding Z-score [4]: -0.269 | pull-down binding Z-score (TO-N3 (biotin conjugate)): -0.887

UGUUUCUUUAAUGAGGACGAAACA [hsa-mir-329-1]
pull-down binding Z-score [1]: -0.326 | pull-down binding Z-score [2]: 0.65 | pull-down binding Z-score [3]: 1.67 | pull-down binding Z-score [4]: 0.302 | pull-down binding Z-score (TO-N3 (biotin conjugate)): 0.46

UGUUUCUUUAUUGAGGACGAAACA [hsa-mir-329-2]
pull-down binding Z-score [1]: -0.89 | pull-down binding Z-score [2]: -0.144 | pull-down binding Z-score [3]: 0.973 | pull-down binding Z-score [4]: -0.343 | pull-down binding Z-score (TO-N3 (biotin conjugate)): -0.5

UGUUUGUGUCUAAACUAUCAAACG [hsa-mir-122]
pull-down binding Z-score [1]: -0.625 | pull-down binding Z-score [2]: -0.183 | pull-down binding Z-score [3]: -0.679 | pull-down binding Z-score [4]: -0.158 | pull-down binding Z-score (TO-N3 (biotin conjugate)): -0.332

UGUUUUUGCCAUUAAAAAUAAUGGCAUUAAAAGUAAUGGCAAAAACG [hsa-mir-548al]
pull-down binding Z-score [1]: -1.14 | pull-down binding Z-score [2]: -0.484 | pull-down binding Z-score [3]: -0.871 | pull-down binding Z-score [4]: -0.431 | pull-down binding Z-score (TO-N3 (biotin conjugate)): -1.01

UUAAAUGUGUCAUUUAAAAAUUCAG [hsa-mir-1972-1_1972-2]
pull-down binding Z-score [1]: -0.257 | pull-down binding Z-score [2]: -0.0749 | pull-down binding Z-score [3]: -1.87 | pull-down binding Z-score [4]: 0.161 | pull-down binding Z-score (TO-N3 (biotin conjugate)): -0.138

UUAACAUGUUGAGCAUUACUCAUGUUAG [hsa-mir-3684]
pull-down binding Z-score [1]: -0.162 | pull-down binding Z-score [2]: -0.527 | pull-down binding Z-score [3]: -0.319 | pull-down binding Z-score [4]: -0.175 | pull-down binding Z-score (TO-N3 (biotin conjugate)): -0.597

UUAACCUAAAAUGAGAAGGCUAA [hsa-mir-633]
pull-down binding Z-score [1]: -0.637 | pull-down binding Z-score [2]: -0.0885 | pull-down binding Z-score [3]: -1.29 | pull-down binding Z-score [4]: -0.223 | pull-down binding Z-score (TO-N3 (biotin conjugate)): -0.212

UUAAUGAGGCCAUAGA [hsa-mir-6863]
pull-down binding Z-score [1]: -0.294 | pull-down binding Z-score [2]: -0.374 | pull-down binding Z-score [3]: -0.397 | pull-down binding Z-score [4]: -0.277 | pull-down binding Z-score (TO-N3 (biotin conjugate)): -0.328

UUACCCAACGUCUCUGAGUCUCGGUUUUGAGAGGGUGAGUAA [hsa-mir-7973-1]
pull-down binding Z-score [1]: 0.29 | pull-down binding Z-score [2]: 0.0875 | pull-down binding Z-score [3]: 0.981 | pull-down binding Z-score [4]: -0.0539 | pull-down binding Z-score (TO-N3 (biotin conjugate)): 0.268

UUACUCACCCUCUCAAAACCGAGACUCAGAGACGUUGGGUAA [hsa-mir-7973-2]
pull-down binding Z-score [1]: 0.271 | pull-down binding Z-score [2]: -0.25 | pull-down binding Z-score [3]: -1.63 | pull-down binding Z-score [4]: 0.138 | pull-down binding Z-score (TO-N3 (biotin conjugate)): -0.0759

UUACUGCAGGGAUCUUAGCAGUAC [hsa-mir-583]
pull-down binding Z-score [1]: 0.435 | pull-down binding Z-score [2]: 0.295 | pull-down binding Z-score [3]: -0.752 | pull-down binding Z-score [4]: 0.0351 | pull-down binding Z-score (TO-N3 (biotin conjugate)): 0.303

UUAGCCCAGCAAUGGGAGAGUGCUAA [hsa-mir-4636]
pull-down binding Z-score [1]: 0.154 | pull-down binding Z-score [2]: 0.252 | pull-down binding Z-score [3]: 0.508 | pull-down binding Z-score [4]: 0.32 | pull-down binding Z-score (TO-N3 (biotin conjugate)): 0.111

UUAUACCUGAUGCUCACGUAUAA [hsa-mir-208a]
pull-down binding Z-score [1]: -0.742 | pull-down binding Z-score [2]: 0.398 | pull-down binding Z-score [3]: -0.85 | pull-down binding Z-score [4]: -0.0463 | pull-down binding Z-score (TO-N3 (biotin conjugate)): 0.187

UUAUCUGUCACCAGUCAGAUAACUGUCACCAGUCAGUUAA [hsa-mir-4764]
pull-down binding Z-score [1]: -0.396 | pull-down binding Z-score [2]: -0.842 | pull-down binding Z-score [3]: -0.644 | pull-down binding Z-score [4]: -0.324 | pull-down binding Z-score (TO-N3 (biotin conjugate)): -0.684

UUAUGUUUCUGAUCCGAAUAUAA [hsa-mir-208b]
pull-down binding Z-score [1]: -0.679 | pull-down binding Z-score [2]: -0.229 | pull-down binding Z-score [3]: 0.538 | pull-down binding Z-score [4]: -0.345 | pull-down binding Z-score (TO-N3 (biotin conjugate)): -0.483

UUAUUCAGAGAGGCUAGAUCCUCUGUGUUGAGAAGGAUCA [hsa-mir-433]
pull-down binding Z-score [1]: -0.0231 | pull-down binding Z-score [2]: -0.385 | pull-down binding Z-score [3]: 0.503 | pull-down binding Z-score [4]: 0.23 | pull-down binding Z-score (TO-N3 (biotin conjugate)): -0.151

UUAUUUGAGAUGAGUUACAUCUUGGAGG [hsa-mir-1204]
pull-down binding Z-score [1]: -0.536 | pull-down binding Z-score [2]: 0.0122 | pull-down binding Z-score [3]: -0.564 | pull-down binding Z-score [4]: -0.295 | pull-down binding Z-score (TO-N3 (biotin conjugate)): -0.0949

UUCACAGACUCUCCAAAAGUCUGAA [hsa-mir-4670]
pull-down binding Z-score [1]: -0.533 | pull-down binding Z-score [2]: -0.362 | pull-down binding Z-score [3]: -1.33 | pull-down binding Z-score [4]: -0.404 | pull-down binding Z-score (TO-N3 (biotin conjugate)): -0.543

UUCAGAGUCAAUAUAAUUUUCUAG [hsa-mir-29a]
pull-down binding Z-score [1]: -0.467 | pull-down binding Z-score [2]: 0.749 | pull-down binding Z-score [3]: 0.0825 | pull-down binding Z-score [4]: 0.27 | pull-down binding Z-score (TO-N3 (biotin conjugate)): 0.485

UUCAGAUUUUGGAACAUUUCGGAUUUUGGA [hsa-mir-1290]
pull-down binding Z-score [1]: -1.15 | pull-down binding Z-score [2]: -0.172 | pull-down binding Z-score [3]: 2.01 | pull-down binding Z-score [4]: -0.35 | pull-down binding Z-score (TO-N3 (biotin conjugate)): -0.297

UUCAGCCUAAAGCAAUGAGAAGCCUCUGAAAGGCUGA [hsa-mir-1827]
pull-down binding Z-score [1]: 0.76 | pull-down binding Z-score [2]: -0.198 | pull-down binding Z-score [3]: -0.0259 | pull-down binding Z-score [4]: -0.0588 | pull-down binding Z-score (TO-N3 (biotin conjugate)): 0.212

UUCAUAGGGAAGCCUUUCCAUGAA [hsa-mir-4738]
pull-down binding Z-score [1]: -0.574 | pull-down binding Z-score [2]: -0.542 | pull-down binding Z-score [3]: -0.912 | pull-down binding Z-score [4]: -0.446 | pull-down binding Z-score (TO-N3 (biotin conjugate)): -0.559

UUCAUGUUCACUGAAAGGUAGAUUUUAAAAACAUGAA [hsa-mir-4790]
pull-down binding Z-score [1]: -0.575 | pull-down binding Z-score [2]: -0.15 | pull-down binding Z-score [3]: -0.0488 | pull-down binding Z-score [4]: 0.268 | pull-down binding Z-score (TO-N3 (biotin conjugate)): -0.371

UUCAUUCAUUCGUUUGCACAUUCGGUGAA [hsa-mir-493]
pull-down binding Z-score [1]: -0.394 | pull-down binding Z-score [2]: -0.556 | pull-down binding Z-score [3]: 0.183 | pull-down binding Z-score [4]: -0.21 | pull-down binding Z-score (TO-N3 (biotin conjugate)): -0.736

UUCAUUUUAUUUAUGAUGAG [hsa-mir-496]
pull-down binding Z-score [1]: -1.33 | pull-down binding Z-score [2]: -0.959 | pull-down binding Z-score [3]: 1.12 | pull-down binding Z-score [4]: -0.288 | pull-down binding Z-score (TO-N3 (biotin conjugate)): -1.2

UUCCGGUGAUUAUCACAGCCAUGCCUUUACCUCCAGAA [hsa-mir-4493]
pull-down binding Z-score [1]: -0.00535 | pull-down binding Z-score [2]: -0.84 | pull-down binding Z-score [3]: -0.101 | pull-down binding Z-score [4]: -0.0994 | pull-down binding Z-score (TO-N3 (biotin conjugate)): -0.594

UUCCUUGUCUGUAGCCAUGUCUAUGGGCUCUUGAG [hsa-mir-571]
pull-down binding Z-score [1]: -0.131 | pull-down binding Z-score [2]: 0.494 | pull-down binding Z-score [3]: -0.205 | pull-down binding Z-score [4]: -0.0353 | pull-down binding Z-score (TO-N3 (biotin conjugate)): 0.461

UUCGCAUUAUUUAAUGAUGCCCA [hsa-mir-323b]
pull-down binding Z-score [1]: -0.486 | pull-down binding Z-score [2]: -0.392 | pull-down binding Z-score [3]: -0.751 | pull-down binding Z-score [4]: -0.241 | pull-down binding Z-score (TO-N3 (biotin conjugate)): -0.467

UUCGCGGUUGGGCU [hsa-mir-3143]
pull-down binding Z-score [1]: 0.693 | pull-down binding Z-score [2]: 1.21 | pull-down binding Z-score [3]: 0.897 | pull-down binding Z-score [4]: 0.258 | pull-down binding Z-score (TO-N3 (biotin conjugate)): 1.33

UUCUAAUGCCAAGAA [hsa-mir-1279]
pull-down binding Z-score [1]: -0.306 | pull-down binding Z-score [2]: 0.835 | pull-down binding Z-score [3]: -0.241 | pull-down binding Z-score [4]: -0.117 | pull-down binding Z-score (TO-N3 (biotin conjugate)): 0.773

UUCUAGUCCCUAUUAGACUAGAA [hsa-mir-5681a]
pull-down binding Z-score [1]: -1.08 | pull-down binding Z-score [2]: -0.543 | pull-down binding Z-score [3]: -0.692 | pull-down binding Z-score [4]: -0.506 | pull-down binding Z-score (TO-N3 (biotin conjugate)): -1

UUCUCCUUGGGAAAAACAGAGAA [hsa-mir-605]
pull-down binding Z-score [1]: -0.414 | pull-down binding Z-score [2]: -0.446 | pull-down binding Z-score [3]: -0.311 | pull-down binding Z-score [4]: -0.016 | pull-down binding Z-score (TO-N3 (biotin conjugate)): -0.65

UUCUCGAGUCUAUGGCUCCGGCCGAGAG [hsa-mir-219a-1]
pull-down binding Z-score [1]: 1.1 | pull-down binding Z-score [2]: 0.197 | pull-down binding Z-score [3]: -0.199 | pull-down binding Z-score [4]: 0.358 | pull-down binding Z-score (TO-N3 (biotin conjugate)): 0.342

UUCUCGGUUGGCCGCAGACUCGUACAAGAA [hsa-mir-219b]
pull-down binding Z-score [1]: 0.724 | pull-down binding Z-score [2]: -0.383 | pull-down binding Z-score [3]: 0.895 | pull-down binding Z-score [4]: 0.0156 | pull-down binding Z-score (TO-N3 (biotin conjugate)): 0.0802

UUCUCUUUAUUUAUGAUGAA [hsa-mir-494]
pull-down binding Z-score [1]: -1.8 | pull-down binding Z-score [2]: -0.968 | pull-down binding Z-score [3]: -1.25 | pull-down binding Z-score [4]: -0.639 | pull-down binding Z-score (TO-N3 (biotin conjugate)): -1.56

UUCUGCUGAAGACUGGUCUCUUCAUGUGUGAG [hsa-mir-6133]
pull-down binding Z-score [1]: 0.00769 | pull-down binding Z-score [2]: -0.389 | pull-down binding Z-score [3]: -0.872 | pull-down binding Z-score [4]: -0.0941 | pull-down binding Z-score (TO-N3 (biotin conjugate)): -0.371
